Paper PMC4705923, “Structural Insights into the MMACHC-MMADHC Protein Complex Involved in Vitamin B12 Trafficking*” (The Journal of Biological Chemistry, 2015)

T1: full-length human MMACHC (HsMMACHCFL) (human, UniProt Q9Y4U1 1-282)
T1 construct: human MMACHC, full length (C-terminal Pro-rich region is aa 236-282); source: E. coli BL21(DE3)R3, purified (Ni-Sepharose, Superdex 200)
T1 sequence (looked up): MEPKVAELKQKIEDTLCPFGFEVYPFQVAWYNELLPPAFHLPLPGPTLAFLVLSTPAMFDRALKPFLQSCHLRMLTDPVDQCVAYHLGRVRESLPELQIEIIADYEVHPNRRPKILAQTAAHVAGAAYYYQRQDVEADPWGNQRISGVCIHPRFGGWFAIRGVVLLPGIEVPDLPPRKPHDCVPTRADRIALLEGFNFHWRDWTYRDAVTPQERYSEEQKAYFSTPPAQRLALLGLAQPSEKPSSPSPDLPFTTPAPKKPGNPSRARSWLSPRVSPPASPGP

T2: full-length human MMACHC (HsMMACHCFL) (human), Q9Y4U1
T2 chain: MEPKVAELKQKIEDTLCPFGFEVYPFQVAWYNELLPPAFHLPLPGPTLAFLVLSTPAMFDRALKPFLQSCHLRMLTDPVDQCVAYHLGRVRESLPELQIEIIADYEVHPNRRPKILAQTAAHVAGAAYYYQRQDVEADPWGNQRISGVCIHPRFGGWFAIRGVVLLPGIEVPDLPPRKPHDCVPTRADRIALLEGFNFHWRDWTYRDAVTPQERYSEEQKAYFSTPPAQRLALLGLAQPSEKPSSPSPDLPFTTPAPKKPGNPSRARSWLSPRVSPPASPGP

T3: untagged HsMMACHCΔC (human, UniProt Q9Y4U1 1-235)
T3 construct: human MMACHC lacking the C-terminal Pro-rich region (aa 236-282); Form used for SAXS; not shown: His6, N-terminal, cleaved
T3 sequence (looked up): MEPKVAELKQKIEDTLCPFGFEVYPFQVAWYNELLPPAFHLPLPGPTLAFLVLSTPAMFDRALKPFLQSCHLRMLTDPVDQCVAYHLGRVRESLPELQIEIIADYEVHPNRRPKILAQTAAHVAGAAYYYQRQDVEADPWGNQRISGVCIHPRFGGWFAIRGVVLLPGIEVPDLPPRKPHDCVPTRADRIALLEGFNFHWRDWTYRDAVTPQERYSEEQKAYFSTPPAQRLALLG

T4: HsMMACHCΔC (human, UniProt Q9Y4U1 1-235)
T4 construct: human MMACHC lacking the C-terminal Pro-rich region (aa 236-282); Form used in BN-PAGE and size-exclusion chromatography; source: E. coli BL21(DE3)R3, purified (Ni-Sepharose, Superdex 200)
T4 sequence (looked up): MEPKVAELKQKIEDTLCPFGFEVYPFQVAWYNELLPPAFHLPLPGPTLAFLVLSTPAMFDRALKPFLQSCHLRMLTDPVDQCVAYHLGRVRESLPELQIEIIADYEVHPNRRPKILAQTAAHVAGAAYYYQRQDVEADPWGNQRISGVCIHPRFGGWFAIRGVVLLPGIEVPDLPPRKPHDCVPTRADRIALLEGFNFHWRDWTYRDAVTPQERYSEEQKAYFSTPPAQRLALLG


How the values were obtained:
[1] = biological target: T1, full-length human MMACHC (HsMMACHCFL); test: native gel or EMSA; blue native-PAGE; 25 μM of each protein with 50 μM MeCbl and 8 mM GSH, preincubated in the dark at room temperature for 1 h; complex judged by an additional band; settings: both partners purified
[2] = biological target: T1, full-length human MMACHC (HsMMACHCFL); test: native MS; about 4 mg/ml MMADHC and MMACHC incubated with 0.5 mM MeCbl and 2 mM reduced GSH, desalted into 50 mM ammonium acetate pH 6.5; Q-TOF, electrospray, positive ion mode; settings: both partners purified
[3] = biological target: T2, full-length human MMACHC (HsMMACHCFL) …; test: native gel or EMSA; blue native-PAGE of single proteins, 25 μM; MMACHC alone and with MeCbl and GSH; MMADHC truncations alone; settings: remark: other sources report otherwise
[4] = biological target: T3, untagged HsMMACHCΔC; test: SAXS; complex reconstituted from untagged proteins with MeCbl and GSH, purified by size-exclusion chromatography, 17 mg/ml; in-line HPLC column or batch mode; Diamond B21; settings: both partners purified
[5] = biological target: T4, HsMMACHCΔC; test: SEC; analytical size-exclusion chromatography of the two proteins with MeCbl and GSH; molecular weights from a calibration curve; settings: both partners purified

Binder	binding result [1]	other results
HsMMADHCΔ61 (domain or fragment, human, UniProt Q9H3L0 62-296, looked up, human MMADHC (296 aa) with N-terminal truncation Δ61; by analogy with MmMMADHCΔ128 = aa 129-296; source: E. coli BL21(DE3)R3, purified (Ni-Sepharose, Superdex 200)) MGPFGPQDQRFQLPGNIGFDCHLNGTASQKKSLVHKTLPDVLAEPLSSERHEFVMAQYVNEFQGNDAPVEQEINSAETYFESARVECAIQTCPELLRKDFESLFPEVANGKLMILTVTQKTKNDMTVWSEEVEIEREVLLEKFINGAKEICYALRAEGYWADFIDPSSGLAFFGPYTNNTLFETDERYRHLGFSVDDLGCCKVIRHSLWGTHVVVGSIFTNATPDSHIMKKLSGN	binds	
HsMMADHCΔ123 (domain or fragment, human, UniProt Q9H3L0 124-296, looked up, human MMADHC (296 aa) with N-terminal truncation Δ123; source: E. coli BL21(DE3)R3, purified (Ni-Sepharose, Superdex 200)) QGNDAPVEQEINSAETYFESARVECAIQTCPELLRKDFESLFPEVANGKLMILTVTQKTKNDMTVWSEEVEIEREVLLEKFINGAKEICYALRAEGYWADFIDPSSGLAFFGPYTNNTLFETDERYRHLGFSVDDLGCCKVIRHSLWGTHVVVGSIFTNATPDSHIMKKLSGN		stoichiometry N [2]: 1
HsMMADHCΔ123-M186A (domain or fragment, human, UniProt Q9H3L0 124-296, looked up, human MMADHC Δ123 construct with p.M186A (stretch 1); also called p.M186A; source: E. coli BL21(DE3)R3, purified (Ni-Sepharose, Superdex 200)) QGNDAPVEQEINSAETYFESARVECAIQTCPELLRKDFESLFPEVANGKLMILTVTQKTKNDATVWSEEVEIEREVLLEKFINGAKEICYALRAEGYWADFIDPSSGLAFFGPYTNNTLFETDERYRHLGFSVDDLGCCKVIRHSLWGTHVVVGSIFTNATPDSHIMKKLSGN	binds	
HsMMADHCΔ123-D226A (domain or fragment, human, UniProt Q9H3L0 124-296, looked up, human MMADHC Δ123 construct with p.D226A (stretch 2); also called p.D226A; source: E. coli BL21(DE3)R3, purified (Ni-Sepharose, Superdex 200)) QGNDAPVEQEINSAETYFESARVECAIQTCPELLRKDFESLFPEVANGKLMILTVTQKTKNDMTVWSEEVEIEREVLLEKFINGAKEICYALRAEGYWADFIAPSSGLAFFGPYTNNTLFETDERYRHLGFSVDDLGCCKVIRHSLWGTHVVVGSIFTNATPDSHIMKKLSGN	binds	
HsMMADHCΔ123-L259P (domain or fragment, human, UniProt Q9H3L0 124-296, looked up, human MMADHC Δ123 construct with p.L259P (stretch 3); also called p.L259P; source: E. coli BL21(DE3)R3, purified (Ni-Sepharose, Superdex 200)) QGNDAPVEQEINSAETYFESARVECAIQTCPELLRKDFESLFPEVANGKLMILTVTQKTKNDMTVWSEEVEIEREVLLEKFINGAKEICYALRAEGYWADFIDPSSGLAFFGPYTNNTLFETDERYRHLGFSVDDPGCCKVIRHSLWGTHVVVGSIFTNATPDSHIMKKLSGN	binds	
full-length human MMACHC (HsMMACHCFL), Q9Y4U1 1-282 (natural protein) MEPKVAELKQKIEDTLCPFGFEVYPFQVAWYNELLPPAFHLPLPGPTLAFLVLSTPAMFDRALKPFLQSCHLRMLTDPVDQCVAYHLGRVRESLPELQIEIIADYEVHPNRRPKILAQTAAHVAGAAYYYQRQDVEADPWGNQRISGVCIHPRFGGWFAIRGVVLLPGIEVPDLPPRKPHDCVPTRADRIALLEGFNFHWRDWTYRDAVTPQERYSEEQKAYFSTPPAQRLALLGLAQPSEKPSSPSPDLPFTTPAPKKPGNPSRARSWLSPRVSPPASPGP		stoichiometry N [3]: 2
untagged MmMMADHCΔ128 (domain or fragment, Mus musculus, UniProt Q99LS1 129-296, looked up, mouse MMADHC aa 129-296; Form used for SAXS; not shown: His6, N-terminal, cleaved) PVEQEINSAETYFESAKVECAIQTCPELLRRDFESLFPEVANSKLMILTVTQKTENDMTVWSEEVEVEREVLLEKFISGAKEICYALRAEGYWADFIDPSSGVAFFGPYTNNTLFETDERYRHLGFSVDDLGCCKVIRHSLWGTHVVVGSIFTNATADSSIMRKLSGN		stoichiometry N [4]: 1
MmMMADHCΔ128 (M. musculus MMADHC aa 129-296) (domain or fragment, Mus musculus, UniProt Q99LS1 129-296, looked up, Form used in BN-PAGE and size-exclusion chromatography; source: E. coli BL21(DE3)R3, purified (Ni-Sepharose, Superdex 200)) PVEQEINSAETYFESAKVECAIQTCPELLRRDFESLFPEVANSKLMILTVTQKTENDMTVWSEEVEVEREVLLEKFISGAKEICYALRAEGYWADFIDPSSGVAFFGPYTNNTLFETDERYRHLGFSVDDLGCCKVIRHSLWGTHVVVGSIFTNATADSSIMRKLSGN		stoichiometry N [5]: 1
HsMMADHCΔ153 (domain or fragment, human, UniProt Q9H3L0 154-296, looked up, source: E. coli BL21(DE3)R3, purified (Ni-Sepharose, Superdex 200)) PELLRKDFESLFPEVANGKLMILTVTQKTKNDMTVWSEEVEIEREVLLEKFINGAKEICYALRAEGYWADFIDPSSGLAFFGPYTNNTLFETDERYRHLGFSVDDLGCCKVIRHSLWGTHVVVGSIFTNATPDSHIMKKLSGN	binds	
